Entries after “also recorded” stand apart in the source; their conditions may differ.
Experiments:
UCP1 [1] = test: High-throughput screen of secreted proteins for UCP1 mRNA induction in committed brown preadipocytes; assay type: cell-based, murine; details: after induction media; secreted protein library
Experimental: To identify protein(s) that can induce UCP1 expression in brown preadipocytes, a high-throughput screen was performed using a protein library containing more than 5,000 mammalian secreted proteins (Lin H. et al., Science 320:807-811, 2008) in an immortalized murine brown preadipocyte cell line (Klein J. et al., J. Biol. Chem. 274:34795-34802, 1999; Tseng Y. H. et al., Nat. Cell. Biol. 7:601-611, 2005). The screen included applying induction media to brown preadipocyte cells, resulting in committed brown preadipocytes.

UCP1 [2] = test: UCP1 expression in 3T3-F442A white preadipocytes overexpressing FGF6; assay type: cell-based; details: constitutive overexpression of FGF6 in 3T3-F442A
Experimental: FGF6 lentiviral vector was generated by cloning mouse FGF6 cDNA into a lentiviral vector. Lentiviruses were obtained by transfecting 293T cells with lentiviral vectors. Viral supernatant was filtered through 0.45 um filter before applying to cells. Transduction was accomplished by incubating cells with virus supernatant. Stable cells were established by drug selection. The lentiviral vector contains a drug resistant gene for selection.
To assess FGF6's role in the regulation of mitochondrial activity, FGF6 was stably expressed in WT-1 brown preadipocytes and 3T3-F442A white preadipocytes. Stable cells were generated by viral infection followed by drug selection.
As mentioned above, 3T3-F442A white preadipocytes were also used to determine FGF6's role in mitochondrial activity regulation.

UCP1 [3] = test: UCP1 mRNA expression in SVF cells from subcutaneous white adipose tissue (SQ-SVF); assay type: cell-based, C57BL/6 mice; details: growth media, 3 days; vs control
Experimental: Eight 6-week old C57BL/6 male mice were sacrificed. Interscapular BAT and axillary subcutaneous WAT were removed, minced and digested with 1 mg/ml collagenase for 45 minutes at 37° C. in DMEM/F12 media, containing 1% BSA and antibiotics. Digested tissues were filtered through sterile 150 μm nylon mesh and centrifuged at 250×g for 5 minutes. The floating fractions consisting of adipocytes were discarded and the pellets representing the SVF were then resuspended in erythrocyte lysis buffer (154 mM NH4Cl, 10 mM KHCO3, 0.1 mM EDTA) for 10 minutes to remove red blood cells. The cells were further centrifuged at 500×g for 5 minutes, plated at 8×10^5 cells/well of a 24-well plate and grown at 37° C. in DMEM/F12 supplemented with 10% FBS at 37° C.
To determine if FGF6 treatment of primary adipose progenitors could also increase UCP1 expression as observed in Example 1, stromo-vascular fraction (SVF) cells, which comprise adipocyte progenitors, were isolated from interscapular brown adipose tissue (BAT-SVF) and subcutaneous white adipose tissue (SQ-SVF). SVF cells were subsequently treated with FGF6 or FGF21 in growth media (DMEM+10% FBS) for 3 days, followed by determination of UCP1 expression. As described in FIGS. 9A and 9B, FGF21 treatment had little effect on UCP1 mRNA expression in either type of SVF cells, as compared to the control. […]

WT-1 brown preadipocytes = test: Extracellular acidification rate (glycolysis) profile in FGF6 overexpressing WT-1 brown preadipocytes; assay type: cell-based, murine; details: FGF6 overexpressing WT-1 vs control cells
Experimental: To determine whether nutrient supply could regulate mitochondrial activity in FGF6-treated cells, concentrations of glucose in the assay media of cells were manipulated and measured in the Seahorse Bioanalyzer. FGF6 was stably expressed in WT-1 brown preadipocytes and 3T3-F442A white preadipocytes. Stable cells were generated by viral infection followed by drug selection.
A profile of the extracellular acidification rate (ECAR) was developed as described in FIG. 20A. 10 mM glucose was added to the assay media, which was then taken up by the cells and catabolized through glycolysis, producing ATP and protons, and resulting in a rapid increase in ECAR. […] Lastly, the glycolysis inhibitor 2-DG was added to measure […].

UCP1 [4] = test: UCP1 expression in immortalized human brown fat progenitors; assay type: cell-based
Experimental: Primary stromal-vascular fraction (SVF) from human neck fat was isolated as described previously (Cannon and Nedergaard, Physiol Rev, 84: 277-359, 2004). Briefly, freshly resected superficial fat (pooled subcutaneous and subplatysmal) and fat located in the deeper neck regions (pooled carotid sheath, longus colli and prevertebral) were collected, minced and digested using collagenase 1 (2 mg/mL in PBS with the addition of 3.5% BSA; Worthington Biochemical Corporation, Lakewood, N.J.), and the SVF was isolated. SVF cells were plated and grown in high glucose Dulbecco's modified Eagle's medium (DMEM/H) supplemented with 10% (v/v) fetal bovine serum (FBS) and 1% penicillin/streptomycin. For adipocyte differentiation, cells were grown to confluent for 6 days (day 6) and then exposed to adipogenic induction mixture in DMEM/H medium containing isobutylmethylxanthine (0.5 mM), dexamethasone (0.1 μM), human insulin (0.5 μM; Roche Applied Science, Indianapolis, Ind.), T3 (2 nM), indomethacin (30 μM), pantothenate (17 μM), biotin (33 μM) and 2% FBS for another 12 days (referred as day 18). Induction medium was changed every 3 days until collected.
Primary SVF cells were immortalized with human telomere reverse transcriptase (hTERT) as described previously (Tchkonia, T., et al. Diabetes 55, 2571-2578, 2006). […]

B1: FGF6: fibroblast growth factor 6; recombinant human FGF from R&D Systems, or mouse FGF6 cDNA overexpressed by lentiviral vector (protein)
chain: KRQRRLYCNVGIGFHLQVLPDGRISGTHEENPYSLLEISTVERGVVSLFGVRSALFVAMNSKGRLYATPSFQEECKFRETLLPNNYNAYESDLYQGTYIALSKYGRVKRGSKVSPIMTVTHFLPRI
- UCP1 mRNA expression in committed brown preadipocytes (screen) (UCP1 [1]): induced UCP1 mRNA expression
- UCP1 expression (UCP1 [2]): resulted in UCP1 expression; also recorded: marked increases
- increase in UCP1 mRNA expression in SVF from subcutaneous WAT (UCP1 [3]): ~200 fold
- cellular glycolysis, glycolytic capacity and glycolytic reserve (ECAR) (WT-1 brown preadipocytes): increase in cellular glycolysis, glycolytic capacity and glycolytic reserve
- increase in UCP1 expression in human brown fat precursors (UCP1 [4]): ~60 fold

Source: patent US20170173114A1, “METHODS AND COMPOSITIONS FOR INDUCTION OF UCP1 EXPRESSION” (Joslin Diabetes Center, Inc., priority 2014, published 2017)
